Test results from US20200165349A1 (Genmab, published 2020).

How the values were obtained:
Human CD137 = target: T1, Human CD137 (human, UniProt Q07011 24-255); assay: flow cytometry on transfected HEK293T-17 cells, 1 µg/mL antibody
T1 construct: also called hCD137 wt; 4-1BB

[1] = target: T2, Human CD137 shuffle 5 (amino acids 48-88 of African elephant CD137) (human with African elephant residues …, UniProt Q07011 24-255); assay: flow cytometry on transfected HEK293T-17 cells
T2 construct: also called shuffle construct 5; shuffle 5/elephant
T2 chain: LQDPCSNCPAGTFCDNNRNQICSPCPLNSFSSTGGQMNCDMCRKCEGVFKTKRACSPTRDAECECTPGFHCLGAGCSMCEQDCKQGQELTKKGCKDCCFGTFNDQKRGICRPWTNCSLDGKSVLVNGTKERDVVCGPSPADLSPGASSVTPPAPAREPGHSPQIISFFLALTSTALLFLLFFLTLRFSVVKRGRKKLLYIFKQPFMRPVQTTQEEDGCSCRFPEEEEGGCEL

African elephant CD137 = target: T3, African elephant CD137 (African elephant (Loxodonta africana)); assay: flow cytometry on transfected HEK293T-17 cells
T3 construct: Amino acids 1-23 are stated to be a predicted signal peptide; Expressed on HEK293T-17 cells; also called Loxodonta africana CD137
T3 chain: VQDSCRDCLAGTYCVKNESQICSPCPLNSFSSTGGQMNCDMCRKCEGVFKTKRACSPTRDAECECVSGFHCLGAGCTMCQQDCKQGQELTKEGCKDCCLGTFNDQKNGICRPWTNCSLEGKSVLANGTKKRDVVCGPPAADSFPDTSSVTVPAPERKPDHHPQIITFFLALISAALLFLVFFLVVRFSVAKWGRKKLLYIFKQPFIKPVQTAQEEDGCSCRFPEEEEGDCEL

Wild boar CD137 = target: T4, Wild boar CD137 (wild boar (Sus scrofa)); assay: flow cytometry on transfected HEK293T-17 cells
T4 construct: Amino acids 1-23 are stated to be a predicted signal peptide; Expressed on HEK293T-17 cells; also called Sus scrofa CD137
T4 chain: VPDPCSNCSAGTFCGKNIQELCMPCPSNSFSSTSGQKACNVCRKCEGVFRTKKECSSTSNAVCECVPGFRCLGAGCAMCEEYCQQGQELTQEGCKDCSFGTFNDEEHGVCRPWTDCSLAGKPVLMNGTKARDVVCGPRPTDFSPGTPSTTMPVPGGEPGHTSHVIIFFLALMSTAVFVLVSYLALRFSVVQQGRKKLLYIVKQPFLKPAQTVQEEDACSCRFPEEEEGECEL

binding result (Human CD137): binds
binding result [1]: no binding (tested: 1 µg/mL)
binding result (African elephant CD137): no binding (tested: 1 µg/mL)
binding result (Wild boar CD137): no binding (tested: 1 µg/mL)
B1: CD137-009 (antibody, human IgG1, kappa, V domains shown)
VH: QSLEESGGRLVTPGTPLTLTCTVSGFSLNDYWMSWVRQAPGKGLEWIGYIDVGGSLYYASWAKGRFTISRTSTTVDLKMTSLTTEDTATYFCARGGLTYGFDLWGPGTLVTVSS
VL: DIVMTQTPASVSEPVGGTVTINCQASEDISSYLAWYQQKPGQRPKRLIYGASDLASGVPSRFSASGSGTEYALTISDLESADAATYYCHYYATISGLGVAFGGGTEVVVKR
notes: Rabbit variable regions on human IgG1; also called chimeric CD137 antibody; rabbit anti-CD137-009
